Test results from patent US8969027B2, “Protease assay” (priority 2008, dated 2015).
No end group written: not given here.

What was measured:
urokinase [1] = target: T1, urokinase (Homo sapiens, UniProt P00749); assay: UV/Vis-absorption spectroscopy measurement of uPA activity with nanoparticle-nanoparticle assembly; type: biochemical; conditions: PBS, 37° C.
T1 construct: purchased Innovative Research, Inc., Novi, Mich
Method: In this procedure, UV/Vis-Absorption spectroscopy was used to measure the activity of uPA. All chemicals and solvents were purchased from Fisher/Acros (Pittsburgh, Pa.), unless otherwise noted. A nanoparticle-nanoparticle assembly was prepared using citrate-stabilized gold nanoparticles (Sigma-Aldrich, St. Louis, Mo.) with a 10 nm diameter and an oligopeptide with the following sequence: CGGGSGRSAGGGC (SEQ ID NO: 35) (GenScript, Piscataway, N.J.). First, 1 mg of the nanoparticles was suspended in 25 ml of tetrahydrofuran (THF) containing 1.0×10^−3 M of glycine. The microheterogeneous solution was heated under pressure (100 psi) and argon-atmosphere to 200° C. for 5 hours. The reaction was carried out using a High-Pressure Reactor (available from Parr Instruments, Moline, Ill.). Digestive ripening decreased the Au-nanoparticle diameter to 4-5 nm. The nanoparticles were then removed from the solution by ultracentrifugation at 30,000 rpm and then resuspended in THF. The procedure was repeated 10 times to remove all non-bonded glycine.
Next, 0.1 mg of the oligopeptide was added to the Au-nanoparticles in 1.0 ml of anhydrous THF, followed by stirring for 24 hours. The oligopeptide and nanoparticles were precipitated by centrifugation at 30,000 rpm and then resuspended in THF. This procedure was repeated 10 times. The linked Au—Au nanoparticle assemblies were then dissolved in phosphate buffer (PBS; pH=7.02), precipitated by centrifugation at 20,000 rpm and resuspended again in PBS.
The reported absorption coefficient at the maximum absorption of the plasmon is ε=7.66×10^9 M^−1 cm^−1. This absorption coefficient was used to estimate the concentration of the Au—Au nanoparticles at […].
The Au—Au nanoparticles in PBS solution were then added to a quartz cuvette (˜3.0 mL). The solution was heated to 37° C. for 15 minutes. Next, 1×10^−8 mol of urokinase in 0.050 ml of PBS (Innovative Research, Inc., Novi, Mich.) was added to the cuvette. […]

[2] = Fluorescence quantum yield of TCPP; type: physicochemical; conditions: untethered, non-metalated TCPP
Method: The emission spectra of the nanoplatform assembly (1×10^−5 M) in PBS in the presence of about 1×10^−8 M urokinase is depicted in FIG. 4, at 0 (A), 2 (B), 4 (C), and 6 minutes (D). […] The reason for the observed non-linear behavior can be found in the high fluorescence quantum yield of the untethered, non-metalated TCPP. We estimated Φ=0.082, which is approximately eight times higher than in the tethered state, when the large porphyrin-concentration in the sphere around the Fe/Fe3O4-nanoparticle leads to increase FRET and, consequently, radiation-less deactivation of the excited states.

urokinase [3] = target: T1, urokinase; assay: FRET-based sensor emission spectra in the presence of urokinase; type: biochemical; conditions: assembly 1×10^−5 M in PBS, about 1×10^−8 M urokinase, 0-6 minutes
Method: For the FRET-Based Sensor, five Zn-TCPP porphyrins were attached to one central stealth-protected Fe/Fe3O4 nanoparticle, and then a non-metalated TCPP porphyrin was attached to the central nanoparticle, using the procedure described below.
To prepare the stealth-protected Fe/Fe3O4-nanoparticles, 35 mg of dopamine-tetraethylene glycol ligand were dissolved in 5 ml THF. Next, 11.0 mg of Fe/Fe3O4-nanoparticles were added and sonicated at room temperature for 1 hour. […] The solid was then collected with a magnet and solvent was decanted carefully. The solid was washed with THF (3×3 ml). After drying under vacuum for 2 hours, 10.0 mg of stealth-protected nanoparticle product was obtained.
The oligopeptide linker was then attached to the metalated porphyrin. […]
The emission spectra of the nanoplatform assembly (1×10^−5 M) in PBS in the presence of about 1×10^−8 M urokinase is depicted in FIG. 4, at 0 (A), 2 (B), 4 (C), and 6 minutes (D). […] The reason for the observed non-linear behavior can be found in the high fluorescence quantum yield of the untethered, non-metalated TCPP. […]
In FIG. 5, the ratios of the integrals of the fluorescence bands shown at λ1=607 nm, λ2=654 nm, and λ3=718 nm are plotted versus the mol percent of released TCPP (as measured by HPLC using an Agilent workstation (HP 1050) equipped with an optical detection system). […]

urokinase [4] = target: T1, urokinase; assay: Fluorescence/phosphorescence assay of uPA activity with chromophore-chromophore assembly; type: biochemical; conditions: excitation of pyrene at 280 nm, 37° C., about 1×10^−8 mol urokinase, 0-15 minutes
Method: In this example, fluorescence/phosphorescence assays were used to measure activity of uPA. A chromophore-chromophore assembly was prepared using the peptide sequence SRSRSRSRSRSGRSAGGGC (SEQ ID NO: 18) (GenScript) as a spacer between a pyrene fluorophore and a coumarin acceptor. All chemicals and solvents were purchased from Fisher/Acros (Pittsburgh, Pa.), unless otherwise noted. The assembly was prepared by dissolving 0.00010 mol of coumarin in THF at room temperature. Next, 0.00012 mol of 1-ethyl-3-(3-dimethyllaminopropyl)carbodiimide (EDC) were added as solid under argon-atmosphere and allowed to react for 5 hours. Then, the oligopeptide linkage was attached to the coumarin by adding to the reaction 0.00010 mol of the oligopeptide dissolved in 1 ml bidest. (double purified) water, followed by stirring at room temperature for 24 hours under argon atmosphere. Next, 0.0020 mol of mercaptopyrene was added as a solid to the solution, and completely dissolved within 5 minutes. The solution was continuously stirred under ambient conditions for another 24 hours. […]
The spectral shift from the assay is depicted in FIG. 3. The changes in the emission spectra were measured using a spectrofluorometer (ISA-SPEX, Fluoromax-2; ISA, Inc., Edison, N.J.). Upon photoexcitation of the pyrene at 280 nm, FRET occurs, which causes the attached coumarin to emit most of the phosphorescence/luminescence. […]

For “coupled pair of gold nanoparticles: 4-5 nm gold nanoparticles linked by oligopeptide CGGGSGRSAGGGC (SEQ ID NO: 35) (cysteine pairing not given here; also: attached to gold nanoparticles)”, the “maximum of the gold plasmon absorption after urokinase cleavage” value (urokinase [1]; 1×10^−8 mol urokinase) was 517 nm, the “time for the shift of the plasmon absorption maximum” value (urokinase [1]; 1×10^−8 mol urokinase) was at most 180 s and the “maximum of the gold plasmon absorption before urokinase cleavage” value (urokinase [1]; before adding urokinase) was 523 nm.

For `O=C(O)c1ccc(-c2c3nc(c(-c4ccc(C(=O)O)cc4)c4ccc([nH]4)c(-c4ccc(C(=O)O)cc4)c4nc(c(-c5ccc(C(=O)O)cc5)c5ccc2[nH]5)C=C4)C=C3)cc1` [TCPP, tetracarboxy-phenyl-porphyrin], the “fluorescence quantum yield Φ” value [2] was 0.082.

For “FRET-Based Sensor: five Zn-TCPP porphyrins and a non-metalated TCPP attached to one stealth-protected Fe/Fe3O4 nanoparticle via CGGGSGRSAGGGC linkers (cysteine pairing not given here; also: links Zn-TCPP porphyrins and TCPP to Fe/Fe3O4 nanoparticle, attachment points not given here)”, the “fluorescence band at λ1=607 nm in the presence of urokinase” value (urokinase [3]) was “distinct decrease”.

In the case of “chromophore-chromophore assembly: pyrene fluorophore and coumarin acceptor linked by peptide SRSRSRSRSRSGRSAGGGC (SEQ ID NO: 18) (also: pyrene fluorophore and coumarin acceptor attached)”, the “coumarin emission (FRET) after adding urokinase” value (urokinase [4]) is reported as “decreases with time”.
